From US20180362652A1 (Biogen, published 2018)
Read-outs that look alike come from different tables or passages of the source.

T1: monomeric huBDCA2 ectodomain (human, UniProt Q8WTT0 45-213)
T1 construct: Prepared by proteolytic cleavage of the purified muIgG2a Fc-huBDCA2 fusion protein (pEAG2423); also called human BDCA2 ectodomain; human BDCA2 ECD
T1 sequence: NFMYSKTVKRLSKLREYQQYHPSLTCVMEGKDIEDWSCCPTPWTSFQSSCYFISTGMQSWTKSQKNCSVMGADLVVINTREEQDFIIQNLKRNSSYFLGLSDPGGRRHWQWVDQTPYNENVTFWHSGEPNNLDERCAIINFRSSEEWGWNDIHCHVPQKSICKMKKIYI

T2: cynomolgus monkey BDCA2 (full-length, cell surface, E73 SNP form) (cynomolgus monkey, UniProt Q8WTT0 1-213 (human entry))
T2 construct: also called cyno BDCA2; surface cynomolgus monkey BDCA2
T2 chain: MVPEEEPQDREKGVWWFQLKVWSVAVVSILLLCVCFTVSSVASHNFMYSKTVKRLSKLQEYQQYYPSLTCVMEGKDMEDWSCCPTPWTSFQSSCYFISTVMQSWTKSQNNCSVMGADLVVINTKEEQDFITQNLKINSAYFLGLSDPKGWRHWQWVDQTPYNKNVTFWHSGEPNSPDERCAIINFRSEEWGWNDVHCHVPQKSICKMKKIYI

T3: human BDCA2 (full-length, cell surface) (human, UniProt Q8WTT0 1-213)
T3 construct: also called huBDCA2; surface human BDCA2
T3 sequence: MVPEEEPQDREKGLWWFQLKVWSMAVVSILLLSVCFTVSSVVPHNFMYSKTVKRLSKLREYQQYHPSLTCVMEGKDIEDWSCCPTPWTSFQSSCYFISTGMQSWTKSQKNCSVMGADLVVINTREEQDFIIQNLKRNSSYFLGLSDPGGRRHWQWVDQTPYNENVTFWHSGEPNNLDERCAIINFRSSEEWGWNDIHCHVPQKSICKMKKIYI


What was measured:
[1] = target: T1, monomeric huBDCA2 ectodomain; assay: Octet, mAb from conditioned medium on anti-human Fc tips, monomeric huBDCA2 in solution
Protocol: Backmutation to the unpaired cysteine, i.e., S95C, was constructed by site-directed mutagenesis producing plasmid pYL749. Variants S95T, S95A, and S95V were constructed by site-directed mutagenesis producing plasmids pYL750, pYL751, and pYL752, respectively. The full-length light chain cDNA sequences in the resultant plasmids were confirmed by DNA sequencing. […] Conditioned medium was harvested at 2 days post-transfection. […] Conditioned medium containing the C95 variant mAbs was assayed by Octet for binding to human BDCA2 ectodomain. Antibodies from conditioned medium from transiently transfected cells were bound to anti-human Fc tips, then monomeric huBDCA2 was flowed over the Octet tips, to examine binding and dissociation.

[2] = target: T2, cynomolgus monkey BDCA2 (full-length, …); assay: direct binding FACS, conditioned medium on CHO cells co-expressing BDCA2 and FcεRIγ
Protocol: (§1) Conditioned medium was assayed by direct binding FACS on stably transfected DG44 CHO cells co-expressing full-length BDCA2 and FcεRIγ cDNAs (human or cynomolgus monkey), (relevant expression vectors are human BDCA2/FcεRIγ: pEAG2456, cyno BDCA2/FcεRIγ: pEAG2668).

[3] = target: T3, human BDCA2 (full-length, cell surface); assay: as above
Protocol: as §1

[4] = target: T1, monomeric huBDCA2 ectodomain; assay: Octet, mAb from conditioned medium on anti-human Fc tips, monomeric huBDCA2 in solution; remark: listed apart in the source
Protocol: The monomeric huBDCA2 ectodomain was prepared by proteolytic cleavage from the purified muIgG2a Fc-huBDCA2 fusion protein (relevant plasmid: pEAG2423). Antibodies from conditioned medium from transiently transfected cells were bound to anti-human Fc tips, and then monomeric huBDCA2 was flowed over the Octet tips, to examine binding and dissociation.

| Binder | binding result [2] | binding result [3] | further results |
| --- | --- | --- | --- |
| hu24F4 H5/L1 C95A (antibody, V domains shown, also called H5/L1 C95A variant) VH: DVQLVQSGGGLVKPGGSLRLSCAASGFTFSTYTMSWVRQAPGKGLEWVATISPGDSFGYYYPDSVQGRFTISRDNAKNSLYLQMNRLRAEDTAVYYCTRDIYYNYGAWFAYWGRGTLVTVSS VL: DIQLTQSPSSLSASVGDRVTITCKASQSVDYDGDSYMNWYQQKPGKAPKLLIYAASTLESGVPSRFSGSGSGTDFTLTISSLQPEDFATYYCQQANEDPRTFGQGTKVEIKR | – | – | binding result [1]: binds |
| hu24F4 H2/L0 (antibody, V domains shown, Humanized variant, human IgG1/kappa, conditioned medium of 293E cells; also called H2 series of hu24F4) VH: EVQLVESGGGLVKPGGSLRLSCAASGFTFSTYTMSWVRQAPGKGLEWVSTISPGDSSTIYYADSVKGRFTISRDNAKNSLYLQMNSLRAEDTAVYYCARDIYYNYGAWFAYWGQGTLVTVSS VL: AIQLTQSPSSLSASVGDRVTITCKASQSVDYDGDSYMNWYQQKPGKAPKLLIYAASTLESGVPSRFSGSGSGTDFTLTISSLQPEDFATYYCQQSNEDPRTFGQGTKVEIK | no binding | – | – |
| hu24F4 H0/L0 (antibody, V domains shown, Humanized variant, human IgG1/kappa, conditioned medium of 293E cells; also called H0 series of hu24F4) VH: EVQLVESGGGLVKPGGSLRLSCAASGFTFSTYTMSWVRQAPGKGLEWVSAISGSGGSTYYADSVKGRFTISRDNAKNSLYLQMNSLRAEDTAVYYCARDIYYNYGAWFAYWGQGTLVTVSS VL: AIQLTQSPSSLSASVGDRVTITCKASQSVDYDGDSYMNWYQQKPGKAPKLLIYAASTLESGVPSRFSGSGSGTDFTLTISSLQPEDFATYYCQQSNEDPRTFGQGTKVEIK | no binding | – | – |
| hu24F4 H6/L2 (antibody, V domains shown, Humanized variant, human IgG1/kappa, conditioned medium of 293E cells; also called H6 series of hu24F4) VH: DVQLVESGGGLVKPGGSLRLSCAASGFTFSTYTMSWVRQAPGKGLEWVATISGGNNYGYSYPDSVKGRFTISRDNAKNSLYLQMNSLRAEDTAVYYCTRDIYYNYGAWFAYWGQGTLVTVSS VL: DIQLTQSPSSLSVSVGDRATISCKASQSVDYDGDSYMNWYQQKPGKAPKLLIYAASTLESGVPSRFSGSGSGTDFTLTISSVQPEDFATYYCQQSNEDPRTFGQGTKVEIK | binds | binds | – |
| hu24F4 H1/L2 (antibody, V domains shown, Humanized variant, human IgG1/kappa, conditioned medium of 293E cells; also called H1 series of hu24F4) VH: EVQLVESGGGLVKPGGSLRLSCAASGFTFSTYTMSWVRQAPGKGLEWVSTISPGDSFGYYPDSVKGRFTISRDNAKNSLYLQMNSLRAEDTAVYYCARDIYYNYGAWFAYWGQGTLVTVSS VL: DIQLTQSPSSLSVSVGDRATISCKASQSVDYDGDSYMNWYQQKPGKAPKLLIYAASTLESGVPSRFSGSGSGTDFTLTISSVQPEDFATYYCQQSNEDPRTFGQGTKVEIK | no binding | no binding | – |
| hu24F4 H4/L1 S95T (antibody, human IgG1, V domains shown, Human IgG1/kappa; conditioned medium of 293E cells; also called H4-L1-C95T (YL750/YL746); hu24F4 H4/L1 C95T) VH: DVQLVESGGGLVKPGGSLRLSCAASGFTFSTYTMSWVRQAPGKGLEWVATISPGDSFGYYYPDSVQGRFTISRDNAKNSLYLQMNSLRAEDTAVYYCTRDIYYNYGAWFAYWGQGTLVTVSS VL: DIQLTQSPSSLSASVGDRVTITCKASQSVDYDGDSYMNWYQQKPGKAPKLLIYAASTLESGVPSRFSGSGSGTDFTLTISSLQPEDFATYYCQQTNEDPRTFGQGTKVEIK | – | – | Kd [1]: 392 pM; koff [1]: 0.00037 s⁻¹; kon [1]: 944000 M⁻¹ s⁻¹ |
| hu24F4 H4/L1 S95V (antibody, human IgG1, V domains shown, Human IgG1/kappa; conditioned medium of 293E cells; also called H4-L1-C95V (YL752/YL746)) VH: DVQLVESGGGLVKPGGSLRLSCAASGFTFSTYTMSWVRQAPGKGLEWVATISPGDSFGYYYPDSVQGRFTISRDNAKNSLYLQMNSLRAEDTAVYYCTRDIYYNYGAWFAYWGQGTLVTVSS VL: DIQLTQSPSSLSASVGDRVTITCKASQSVDYDGDSYMNWYQQKPGKAPKLLIYAASTLESGVPSRFSGSGSGTDFTLTISSLQPEDFATYYCQQVNEDPRTFGQGTKVEIK | – | – | Kd [1]: 323 pM; koff [1]: 0.000301 s⁻¹; kon [1]: 933000 M⁻¹ s⁻¹ |
| hu24F4 H4/L1 S95C (antibody, human IgG1, V domains shown, Human IgG1/kappa; conditioned medium of 293E cells; also called H4-L1-S95C (YL749/YL746)) VH: DVQLVESGGGLVKPGGSLRLSCAASGFTFSTYTMSWVRQAPGKGLEWVATISPGDSFGYYYPDSVQGRFTISRDNAKNSLYLQMNSLRAEDTAVYYCTRDIYYNYGAWFAYWGQGTLVTVSS VL: DIQLTQSPSSLSASVGDRVTITCKASQSVDYDGDSYMNWYQQKPGKAPKLLIYAASTLESGVPSRFSGSGSGTDFTLTISSLQPEDFATYYCQQCNEDPRTFGQGTKVEIK | – | – | Kd [1]: 289 pM; koff [1]: 0.000279 s⁻¹; kon [1]: 967000 M⁻¹ s⁻¹ |
| hu24F4 H2/L2 (antibody, V domains shown, Humanized variant, human IgG1/kappa, conditioned medium of 293E cells; also called H2 series of hu24F4) VH: EVQLVESGGGLVKPGGSLRLSCAASGFTFSTYTMSWVRQAPGKGLEWVSTISPGDSSTIYYADSVKGRFTISRDNAKNSLYLQMNSLRAEDTAVYYCARDIYYNYGAWFAYWGQGTLVTVSS VL: DIQLTQSPSSLSVSVGDRATISCKASQSVDYDGDSYMNWYQQKPGKAPKLLIYAASTLESGVPSRFSGSGSGTDFTLTISSVQPEDFATYYCQQSNEDPRTFGQGTKVEIK | no binding | no binding | – |
| hu24F4 H0/L2 (antibody, V domains shown, Humanized variant, human IgG1/kappa, conditioned medium of 293E cells; also called H0 series of hu24F4) VH: EVQLVESGGGLVKPGGSLRLSCAASGFTFSTYTMSWVRQAPGKGLEWVSAISGSGGSTYYADSVKGRFTISRDNAKNSLYLQMNSLRAEDTAVYYCARDIYYNYGAWFAYWGQGTLVTVSS VL: DIQLTQSPSSLSVSVGDRATISCKASQSVDYDGDSYMNWYQQKPGKAPKLLIYAASTLESGVPSRFSGSGSGTDFTLTISSVQPEDFATYYCQQSNEDPRTFGQGTKVEIK | no binding | no binding | – |
| hu24F4 H1/L0 (antibody, V domains shown, Humanized variant, human IgG1/kappa, conditioned medium of 293E cells; also called H1 series of hu24F4) VH: EVQLVESGGGLVKPGGSLRLSCAASGFTFSTYTMSWVRQAPGKGLEWVSTISPGDSFGYYPDSVKGRFTISRDNAKNSLYLQMNSLRAEDTAVYYCARDIYYNYGAWFAYWGQGTLVTVSS VL: AIQLTQSPSSLSASVGDRVTITCKASQSVDYDGDSYMNWYQQKPGKAPKLLIYAASTLESGVPSRFSGSGSGTDFTLTISSLQPEDFATYYCQQSNEDPRTFGQGTKVEIK | no binding | – | – |
| hu24F4 H3/L2 (antibody, V domains shown, Humanized variant, human IgG1/kappa, conditioned medium of 293E cells; also called H3 series of hu24F4) VH: EVQLVESGGGLVKPGGSLRLSCAASGFTFSTYTMSWVRQAPGKGLEWVSTISPGDSFGYYYPDSVQGRFTISRDNAKNSLYLQMNSLRAEDTAVYYCARDIYYNYGAWFAYWGQGTLVTVSS VL: DIQLTQSPSSLSVSVGDRATISCKASQSVDYDGDSYMNWYQQKPGKAPKLLIYAASTLESGVPSRFSGSGSGTDFTLTISSVQPEDFATYYCQQSNEDPRTFGQGTKVEIK | binds | binds | – |
| hu24F4 H6/L0 (antibody, V domains shown, Humanized variant, human IgG1/kappa, conditioned medium of 293E cells; also called H6 series of hu24F4) VH: DVQLVESGGGLVKPGGSLRLSCAASGFTFSTYTMSWVRQAPGKGLEWVATISGGNNYGYSYPDSVKGRFTISRDNAKNSLYLQMNSLRAEDTAVYYCTRDIYYNYGAWFAYWGQGTLVTVSS VL: AIQLTQSPSSLSASVGDRVTITCKASQSVDYDGDSYMNWYQQKPGKAPKLLIYAASTLESGVPSRFSGSGSGTDFTLTISSLQPEDFATYYCQQSNEDPRTFGQGTKVEIK | – | – | Kd [4]: 5000 pM; koff [4]: 0.00137 s⁻¹; kon [4]: 273000 M⁻¹ s⁻¹ |
| hu24F4 H5/L2 (antibody, V domains shown, Humanized variant, human IgG1/kappa, conditioned medium of 293E cells; also called H5 series of hu24F4) VH: DVQLVQSGGGLVKPGGSLRLSCAASGFTFSTYTMSWVRQAPGKGLEWVATISPGDSFGYYYPDSVQGRFTISRDNAKNSLYLQMNRLRAEDTAVYYCTRDIYYNYGAWFAYWGRGTLVTVSS VL: DIQLTQSPSSLSVSVGDRATISCKASQSVDYDGDSYMNWYQQKPGKAPKLLIYAASTLESGVPSRFSGSGSGTDFTLTISSVQPEDFATYYCQQSNEDPRTFGQGTKVEIK | binds | binds | binding result [1]: binds |
| hu24F4 H4/L2 (antibody, V domains shown, Humanized variant, human IgG1/kappa, conditioned medium of 293E cells; also called H4 series of hu24F4) VH: DVQLVESGGGLVKPGGSLRLSCAASGFTFSTYTMSWVRQAPGKGLEWVATISPGDSFGYYYPDSVQGRFTISRDNAKNSLYLQMNSLRAEDTAVYYCTRDIYYNYGAWFAYWGQGTLVTVSS VL: DIQLTQSPSSLSVSVGDRATISCKASQSVDYDGDSYMNWYQQKPGKAPKLLIYAASTLESGVPSRFSGSGSGTDFTLTISSVQPEDFATYYCQQSNEDPRTFGQGTKVEIK | binds | binds | binding result [1]: binds |
